Measurements from the domain aggregation screens of Martell et al. (2025).

assay: soluble fraction after stress (log2 fold change); higher = more stays soluble; pooled small domains, quantitative proteomics; conditions: stress: 75 degC
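Note: 20 min heating vs room temperature control held 20 min.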

In order of rising “soluble fraction (log2)” value:
1. HMEIIFVEHKVRPGESVWLIARKYKVKKNHILAVNNLSEKSIIRPKQILKIPTSGYDQYKKSVE  -3.79
2. HMENLTLVIGNKLKNIRNSRNLSLDDVAELTGVSKAMLGQIERGKSNPTVSTLWKISTGLRVSFSSFIDE  -3.44
3. HMEMVSMPGLTGSTLEFATKTLTENELKYEVVYIVDASAESGLIIRTYPTEGEMVSKKTSTIYLYIKE  -3.4
4. HMELGWYVRLRRRELGLSVTALAEKAGMSQSYLSQIETGDRGNPSPESLRSLAEALEVSPRELESLV  -2.82
5. HMEKKPYGEMHNVMLTDEELEKLRHDYPAHFAEYIQRLSLHIDAKGARYKSHYAVIRKWLIADGVKA  -2.36
6. HMEKPTEITLSNRVSVQELAEKMYVSETDIIRTLFLDGRIININQVLDIDTAIRVGEQLGIKIKII  -2.14
7. HMEPEAKIDFILKAAQKRLGLYGYEKTTMQEIAADINMSKAALYYYFPDKESLFKAVVENEQEEYFH  -1.97
8. HMEMKVIPFNQMTRDQFDQLDRFLGRLAAAQAMGSLRLTKAQQNYFLNQVKQLDLYRKRILN  -1.96
9. HMELNDEELIKGIQELLTKIGYDPGEINGVLGIKTSSAISAFQQSRNKAITGEADLDLLVQLQIELRKITT  -1.86
10. HMELEKIRPDLDGLEIMAILGISPSPIVGRAYQYLLDLRMDRGPLGPDAAKAELLNWWSLNQPK  -1.66
11. HMELVQIIGNNIRDLMTTRSVTITDLANYLNVSRQTLQNYLRGSNIIDSVKLVAVSDFFDVPVESLLQSK  -1.45
12. HMEIIMIVITKPSITDERIAEIVAVIERNGGVQAHVSKGTDRTVIGIIGKAEPTLAEHLRQMKGVENVIKI  -1.33
13. HMENIIFDIGFHKGEDTLFYLLKGYRVIAVDADPDLINEWQNIFKKYIENGKLLLLNYVISDT  -1.29
14. HMELPPLEPIDRILVVQQPINIREQPGVLAKKIGRVSSGETLTILAKVSGQDWYFVETDNGGRGYVFKRV  -1.15
15. HMEPEDVIAMERYLASGAIKGIGVTLAGRIIKKFQKETFHIIEEEPERLSEVKGISEKLAREIYQQFTQK  -1.11
16. HMEPLVSKVFQVSYQKTADLVALIKSEDSKLLSARGTLISDERTSQIFVQDTPTRLERISMIVNGL  -0.889
17. HMENDGQFLRAEREKYGLTLTDIYEHTHIPIKKLKAYEMWEEEMPPRTRALLELYFDQVAFEYDS  -0.862
18. HMENQFNDWSLTPSEKEVALFMLKGLSTQEIAAARNTKEKTVRQQASAVYAKSQLDGRYALAAWFFEDI  -0.702
19. HMENLQLQQLVKGLPEKMQEIVILRFSQELTMREIADIVNLPMRTVQSQLRLALKILKKEMG  -0.682
20. HMEITGKYKAKEDIKLKVIPLISSLDLQDIKQNTELEVKDTMNNWAYVTVQEKQGWVVLEKIEKVE  -0.631
21. HMEITTLTGVLGAGRLDSALAAALPQYSRARIQALISDAALRINGQVVADAGSKKMSGQTFELNIPAPVP  -0.594
22. HMENPLETYYSQWVSAIKREHPEASFVKDTDGKYYVEGLTKNRLAVIYENPHLVRLVNATTNLHVE  -0.567
23. HMEPVQFIQFKIPDGHPWSGQLLREVRLPPGTLVVLLKHDGKNIIPNGETPLLAGDSVILSAASPT  -0.567
24. HMEKDEYIFVDIDGAVFNPGVYKLIAGSRVIDAINLAGGLKEKAFTQNLNKARKLVDGEKIYIYLEGDEE  -0.552
25. HMENEFEAYSDGSSIQLNDPSKATYVVFDRQGRLLHLFQNHSLSSLSIERKNQILIITRETADGVSVKKIV  -0.53
26. HMEPEVEITYFKPDERKAGGAYVTVTGAVIKVDDFERLITMQDGTKIPMDDILSIDGELFLS  -0.502
27. HMEKDRDKRIRKRVLTALKRNDKKMTDKAFALLTSRIRDESILDQEVLKLIGYVGDRTTIDSKDINIVVAE  -0.392
28. HMEKEYMKNVVGMEYRQARVLLGDMGLELAFQPVYETSDKYPTDVVVSTEPAADQPLTKGQTVILHIST  -0.332
29. HMEKPTRNKLVEIIIQNKNVTTEQMANLLNISRRAVAKHIKKLQEEGIIRRIGPDFGGHWEIVK  -0.294
30. HMEKTLAERVNDILAEIKMTKQELAMQLNISRSAVSQYLNGKYSSNPEAIEARLRDFVSSYDRG  -0.292
31. HMENLIEELTAKNKEYIHSVTKQLILVGKSDEEVKEILNDILPQIIEGQKSGIIARKLLGAPTEFVSQYQP  -0.269
32. HMELGRQDSAQLGRWAAGILAKNGKKITGRTMEFFLSRTGDDMENISSELEKLISYTLGREVITEEDIEAV  -0.263
33. HMEPVDYEALRKELMQKVMGLFTQSRDVGIQILSSFGAKKLSDVPDDKLVAFAASVDKALAG  -0.193
34. HMEMGNKIKELRTKLGITQEELSKTLNVSSQAVSKWENGGLPDLELIPEIAKYFNVTTDYLFDIK  -0.187
35. HMEMTSREIIKRLEEDGWYHVKTTGDHYQMKHPTKPGKVTIVHPAKDLSIGTLRSIEKQSGVRL  -0.18
36. HMEIPMRDKLKTYIDYLFAGAPQTAATAETKAEILQNTLDKYDDLIAEGKTPEAAYSLAVSGIGDLGDF  -0.179
37. HMENISVESKMKLLLKSLKTRDFISLPELVLKGESKLAISVILVAALELNRKGYIEVVQAEQFGEIYFKNT  -0.173
38. HMEKEEELNSIRPDLDGNDIMEILGVPAGPKVGKAYNYLLNVRLDEGPLSRAEAISRLEAWWENQ  -0.168
39. HMELEENTERVLNILIENDIISENDIAEKLEVKINGARKALYKLKEVGFVEYTKERDEEKKWWYIYFWKLN  -0.132
40. HMENFSTLFSRLKEERGLSNKQISSFTGAPIKEVKKWESGMGIPTEKRIVAALEGILGSEISKAI  -0.125
41. HMELDLPLEELGLSTRVLHSLKEEGIESVRALLALNLKDLKNIPGIGERSLEEIKEALEKKGFTLK  -0.103
42. HMENQMIIYIDENDENKRLDSYLSEITPDYSRSKIQNFIKNGNVTVNDSNKKPSYLLKENDKISFELPQQ  -0.0893
43. HMENLSGNDIKYLRKKYNLTQKELADALGLQKFGDRTIRRWEAEETHPSKLEQSSIQSFFNSLK  -0.0716
44. HMEKYIVEAEEQGKRLDMYISSKDEELTRTSAQRLIEQGDILVNNKKVKVAYKVSEGDIIAVEKQ  -0.0711
45. HMENHILIIDDDLMLLKTAEEILSDQYNVSVAKSGIQALNLLNKNIIPDLILLDIDMPQMDGYETL  -0.0633
46. HMEKSLSAQVYEKIKAGIISLKYPPGSVLKERELSESLGVSRTPVREAIQRLSQESWLVPGEGKRMQVRP  -0.0542
47. HMEKKKVPEVAGQDEAAARNVMTNSGFVVDVEQKEDDNVPAGKVITTAPAGGVEVVEGTKIILYVSKGSN  -0.052
48. HMEKELVSDFASRISTARSSKGWNHAELGKRMAETVNVIKSAESGKPPTDSVVKKLERVLGITLMEV  -0.0517
49. HMENVVESIYNKMVESITNGQWAAGSKIPTENELAKTYQVSRSSVRQAISRLKALGLLESRQGSGTVIKK  -0.0436
50. HMELMKPPGYWQSLENAIYESKKVIKEHGFDTLPSSNKLRELDYHGLSRAISVHHSGFPNFREIMNQELGI  -0.00652
51. HMEKINLLVENNDNYRLDKIIALNMEELSRTQIQEMIGQGLVLVNGKVEKASYKTKLNDQIEITIED  -0.0065
52. HMEPGEVQVDGLRFIAQPQERNDFEVALEQFRAGNFAAARKSFAAFINTYKQSGYLPSARFW  0.0135
53. HMENSLLSESLAKIYIKTHRYERAYEILSRLSLAVPEKNAYFADQLRFLRKVMLAESFRKQHS  0.0207
54. HMEPDTVVVPNFVGKVYASEIEGNEAYSDFTFVIKEGNDPEQDIGVVLKQTPNEGLEVKKGKEITLTINQ  0.031
55. HMENNIILNYVKDNLNITEKDAKDLIELLGSDYYHIKNETNKIAAFLDGQPYSFEKIKNLISIDKEY  0.0409
56. HMENEDMTGDIRVIDYIRNVAEYIQTTKGQASASQMLDRFLFPPELQYTPLDKLSGGEQRRLYLLKVLMEA  0.0433
57. HMELQYSQEIEEAQKILENLGLYRGEIDGINGINTKSAIREFQRKSGLVVDGILGPNTTNALSKGSDAYIT  0.0481
58. HMENTSPMTPEQSKALMAYLTKRHGDSREAYLSELSQFFGRPLSSSRELTKADVSEFLNAIN  0.0561
59. HMELNGVSETAKSVYSIILNNSSTVDDIVIKTKLPAAKVMQALTELELNDAVERKSGGVYALP  0.0577
60. HMENPVPVIITDQNFQPLLWKNVGVPTDTIFHELSPENQKKLENLMKTMVQMPLTDDGRISGYAYYSK  0.0767
61. HMEPDEIVLDHRKRIENSDAIVLIAPIWNFRMPAILEGWIDKVLAPPWAFKFKKLFGNYGYPVGNLKG  0.0917
62. HMEKLIRIKRLIKQLNEYRDSYYNEARPVVSDAAYDKLFDELSELEKETGVVYANSPTQTVG  0.0942
63. HMELPADLATVLSVDDIRAIALAEVPGSTITGVELEREEGVLVYKVKFNDGSYKLYDANTGELV  0.105
64. HMEPLKLGDATGDGKINLQDVLEMQKHMAGILVLKGKFFTAADVNGNGKIELVDVLSVQKYLAGVTAEV  0.11
65. HMENWMPNLVNQDKRLAINTLRELGFTEEAGNLVIREETSEDVTKDYVISTDPVAETDLADVEKVTLVVSS  0.116
66. HMENEIPVPELVGMSEADAAAKLASLGLERDTQREATADEESVGKVLRQEPTPGEYVDEGHKVTIWVGE  0.184
67. HMEKGNEEALEQAREAILAVQSGEKYVDLDPANAAIRRKQHALAQASDLVSQSYGKDPNRYVRIFR  0.233
68. HMEIPTEEILKQKLYYSISEVASWFKVNTSLLRYWENEFDILQPRKTRKGDRLFRVEDIKNLQLIYLL  0.26
69. HMENLSFNINSEEEGQRIDKYLSVMIEGKSRSFVQGLIEEKKVKANSKVIKSNYKLKKGDFIEVEVPEPV  0.289
70. HMEKPYTPPANLNEIQSYEELSKAVQYYNKVKDAATTDADRLKAQQSIDTLEDMRKAWDAASST  0.328
71. HMENLVPVVVATTNIEPRTQITDAMVKVEQIPALGRNESMLEDPALVVGGYATGKIYAGQSFIQPMVSK  0.351
72. HMEPERRHLEVPAEAEGERIDRFLASQLENLSRSRIQALIKAGYVRNRRGTIEDPGLRVKPGDAFVVDLPP  0.354
73. HMEPMNMYSSIKKVIGVVSGKGGVGKSLVTASLARMMRAKGYHVGIMDADITGPSIPKMYGLHEMA  0.395
74. HMENDPYEILGIARSASDDEIKAKYRALTRENHPDILMAKGVPQEFIDLANEKMAVINAAYDKIEKER  0.407
75. HMENYIEQLTAKNSEYIHVVTRELVKIGKSDEEIKAILSDILPQIVAAQDQRVLAKDILGTPSEFTAKYAP  0.462
76. HMEPDDLTVIKGIGPVAAKDLNEQGIITFAQLAKLSDKDVAKIDEHMPFSADQIKDWREQAKELAK  0.739
77. HMENKVLVITEEEKGKRLDVYLAAALEVSRSYAQQLIQGEDVVVNDKQVKANYRLSEGDVVQVQLD  1.01
